Measured values taken from patent publication US20220323445A1, “REDUCING IMMUNOGENICITY TO PEGLOTICASE” (Horizon Therapeutics Ireland DAC, priority 2020, published 2022).

Test system: serum uric acid (sUA)
Experiment: Serum uric acid (sUA) levels and sUA responders, open-label study of pegloticase with MTX (NCT03635957)
Type: in vivo, human
Procedure: The primary objective is to estimate the response rate during Month 6 (Weeks 20, 22, and 24), as measured by the sustained normalization of serum uric acid (SUA) to <6 mg/dL for at least 80% of the time during Month 6 in subjects receiving KXX with MTX.
The primary efficacy outcome endpoint is the sustained normalization of SUA to <6 mg/dL for at least 80% of the time during month 6 (weeks 20, 22, and 24) in subjects receiving KXX with MTX. This is slightly below the urate solubility threshold and this threshold has been the accepted standard for nearly all modern gout trials. Participants who achieve this endpoint were classified as “responders.” Serum uric acid (SUA) responders may also be defined as participants achieving and maintaining SUA <6 mg/dL for at least 80% of the time during Month 6 (Weeks 20, 22, and 24).
Blood samples may be collected prior to each pegloticase infusion for measurement of SUA levels using the Beckman Coulter AU System Uric Acid procedure. Participants were declared “non-responders” if there were SUA measures >6 mg/dL at 2 consecutive study visits beginning with the week 2 visit. […] If the SUA goal is not maintained before or at the 12-week mark, it was assumed that the participant had developed clinically relevant anti-pegloticase antibody and they received no further infusions. This assumption and subsequent discontinuation of pegloticase was consistent with the protocol of large phase III randomized controlled trials and the product label. A formal stopping rule was 2 occasions of SUA levels of greater than 6 mg/dL.
Clinical Chemistry—Blood samples were collected prior to each pegloticase infusion for measurement of SUA levels (primary efficacy parameter) using the Beckman Coulter AU System Uric Acid procedure. In this procedure uric acid is converted to hydrogen peroxide. Hydrogen peroxide reacts with reagent to produce a chromophore which is read bichromatically at 660/800 nm. The amount of dye formed is proportional to the uric acid concentration in the sample.
Serum samples for measurement of SUA levels were collected at the Screening Visit, the Week −4 Visit (prior to the first dose of MTX), and the Week −2 Visit during the MTX Run-in Period; within 48 hours prior to each pegloticase infusion and after the end of each pegloticase infusion prior to discharge from the site during the Pegloticase+IMM Period; at the non-infusion Week 52/End of Study/Early Termination Visits and at the Post Treatment 3 and 6 Month Follow-up Visits. Additional serum samples for SUA levels were collected at optional non-infusion (Frequent Sampling) Visits at Weeks 1 and 7. […] Subjects with SUA level >6 mg/dL at 2 consecutive visits beginning at Week 2 visit discontinued treatment, completed the End of Pegloticase Infusion Visit procedures within 2 weeks and continued the subject visits according to the protocol (without treatment).
Efficacy analyses were performed using the modified intention-to-treat (mITT) population, defined as all enrolled subjects who received ≥1 dose of pegloticase. The proportion of Month 6 responders was summarized, along with a 95% confidence interval for the proportion. The proportion of Month 3 and overall (Months 3 and 6 combined) responders was analyzed similarly.
A subject was declared a non-responder if the subject had SUA level >6 mg/dL at 2 consecutive study visits beginning with the Week 2 Visit. In addition, a subject who withdraws from study treatment for any reason after the first dose of pegloticase in the KXX+MTX Period and prior to Month 6 (for the primary endpoint) or Month 3 (for the secondary endpoint) was considered a non-responder if SUA values were not collected at the planned time points.
Patients were administered oral MTX (15 mg/week) and folate (1 mg/day) 4 weeks prior to the first pegloticase infusion (Day 1) and throughout the pegloticase treatment period. […]

[1] = Week 18 - Pre-Infusion, Month 6 sUA Responders
[2] = Week 18 - Pre-Infusion, mITT, n=11
[3] = Week 20 - Post-Infusion, Month 6 sUA Responders
[4] = Week 20 - Post-Infusion, mITT, n=11
[5] = Week 20 - Pre-Infusion, Month 6 sUA Responders
[6] = Week 20 - Pre-Infusion, mITT, n=11
[7] = Week 22 - Post-Infusion, Month 6 sUA Responders
[8] = Week 22 - Post-Infusion, mITT, n=11
[9] = Week 22 - Pre-Infusion, Month 6 sUA Responders
[10] = Week 22 - Pre-Infusion, mITT, n=11
[11] = Week 24 - Post-Infusion, Month 6 sUA Responders
[12] = Week 24 - Post-Infusion, mITT, n=5
[13] = Week 24 - Pre-Infusion, Month 6 sUA Responders

B1: pegloticase (protein)
chain: TYKKNDEVEFVRTGYGKDMIKVLHIQRDGKYHSIKEVATTVQLTLSSKKDYLHGDNSDVIPTDTIKNTVNVLAKFKGIKSIETFAVTICEHFLSSFKHVIRAQVYVEEVPWKRFEKNGVKHVHAFIYTPTGTHFCEVEQIRNGPPVIHSGIKDLKVLKTTQSGFEGFIKDQFTTLPEVKDRCFATQVYCKWRYHQGRDVDFEATWDTVRSIVLQKFAGPYDKGEYSPSVQKTLYDIQVLTLGQVPEIEDMEISLPNIHYLNIDMSKMGLINKEEVLLPLDNPYGKITGTVKRKLSSRL
modifications: monomethoxy PEG conjugated; Krystexxa Sequence
notes: covalent conjugate of uricase produced by a genetically modified strain of Escherichia coli and monomethoxypoly (ethylene glycol)
- sUA Change from Baseline, Mean [1]: -8.97 mg/dL
- sUA Change from Baseline, Median [1]: -8.80 mg/dL
- sUA Observed, Mean [1]: 0.30 mg/dL
- sUA Observed, Median [1]: 0.30 mg/dL
- sUA < 6 mg/dL, n (%) [2]: 11 (100%)
- sUA Change from Baseline, Mean (SD) [2]: −8.97 (2.810) mg/dL
- sUA Change from Baseline, Median [2]: -8.80 mg/dL
- sUA Observed, Mean (SD) [2]: 0.30 (0.000) mg/dL
- sUA Observed, Median [2]: 0.30 mg/dL
- sUA < 6 mg/dL, % [3]: (100%)
- sUA Change from Baseline, Mean [3]: -8.97 mg/dL
- sUA Change from Baseline, Median [3]: -8.80 mg/dL
- sUA Observed, Mean [3]: 0.30 mg/dL
- sUA Observed, Median [3]: 0.30 mg/dL
- sUA < 6 mg/dL, n (%) [4]: 11 (100%)
- sUA Change from Baseline, Mean (SD) [4]: −8.97 (2.810) mg/dL
- sUA Change from Baseline, Median [4]: -8.80 mg/dL
- sUA Observed, Mean (SD) [4]: 0.30 (0.000) mg/dL
- sUA Observed, Median [4]: 0.30 mg/dL
- sUA < 6 mg/dL, % [5]: (100%)
- sUA Change from Baseline, Mean [5]: -8.97 mg/dL
- sUA Change from Baseline, Median [5]: -8.80 mg/dL
- sUA Observed, Mean [5]: 0.30 mg/dL
- sUA Observed, Median [5]: 0.30 mg/dL
- sUA < 6 mg/dL, n (%) [6]: 11 (100%)
- sUA Change from Baseline, Mean (SD) [6]: −8.97 (2.810) mg/dL
- sUA Change from Baseline, Median [6]: -8.80 mg/dL
- sUA Observed, Mean (SD) [6]: 0.30 (0.000) mg/dL
- sUA Observed, Median [6]: 0.30 mg/dL
- sUA < 6 mg/dL, % [7]: (100%)
- sUA Change from Baseline, Mean [7]: -8.97 mg/dL
- sUA Change from Baseline, Median [7]: -8.80 mg/dL
- sUA Observed, Mean [7]: 0.30 mg/dL
- sUA Observed, Median [7]: 0.30 mg/dL
- sUA < 6 mg/dL, n (%) [8]: 11 (100%)
- sUA Change from Baseline, Mean (SD) [8]: −8.97 (2.810) mg/dL
- sUA Change from Baseline, Median [8]: -8.80 mg/dL
- sUA Observed, Mean (SD) [8]: 0.30 (0.000) mg/dL
- sUA Observed, Median [8]: 0.30 mg/dL
- sUA < 6 mg/dL, % [9]: (100%)
- sUA Change from Baseline, Mean [9]: -8.97 mg/dL
- sUA Change from Baseline, Median [9]: -8.80 mg/dL
- sUA Observed, Mean [9]: 0.30 mg/dL
- sUA Observed, Median [9]: 0.30 mg/dL
- sUA < 6 mg/dL, n (%) [10]: 11 (100%)
- sUA Change from Baseline, Mean (SD) [10]: −8.97 (2.810) mg/dL
- sUA Change from Baseline, Median [10]: -8.80 mg/dL
- sUA Observed, Mean (SD) [10]: 0.30 (0.000) mg/dL
- sUA Observed, Median [10]: 0.30 mg/dL
- sUA < 6 mg/dL, % [11]: (100%)
- sUA Change from Baseline, Mean [11]: -9.18 mg/dL
- sUA Change from Baseline, Median [11]: -9.30 mg/dL
- sUA Observed, Mean [11]: 0.30 mg/dL
- sUA Observed, Median [11]: 0.30 mg/dL
- sUA < 6 mg/dL, n (%) [12]: 5 (100%)
- sUA Change from Baseline, Mean (SD) [12]: −9.18 (4.135) mg/dL
- sUA Change from Baseline, Median [12]: -9.30 mg/dL
- sUA Observed, Mean (SD) [12]: 0.30 (0.000) mg/dL
- sUA Observed, Median [12]: 0.30 mg/dL
- sUA < 6 mg/dL, % [13]: (100%)
- sUA Change from Baseline, Mean [13]: -8.97 mg/dL
- sUA Change from Baseline, Median [13]: -8.80 mg/dL
- sUA Observed, Mean [13]: 0.30 mg/dL
- sUA Observed, Median [13]: 0.30 mg/dL
